B1: N-terminal 3×-FLAG-tagged p52 (WT) [human] / p44 [human (endogenous in HEK293T)] (parent)
chain 1: MESTPSRGLNRVHLQCRNLQEFLGGLSPGVLDRLYGHPATCLAVFRELPSLAKNWVMRMLFLEQPLPQAAVALWVKKEFSKAQEESTGLLSGLRIWHTQLLPGGLQGLILNPIFRQNLRIALLGGGKAWSDDTSQLGPDKHARDVPSLDKYAEERWEVVLHFMVGSPSAAVSQDLAQLLSQAGLMKSTEPGEPPCITSAGFQFLLLDTPAQLWYFMLQYLQTAQSRGMDLVEILSFLFQLSFSTLGKDYSVEGMSDSLLNFLQHLREFGLVFQRKRKSRRYYPTRLAINLSSGVSGAGGTVHQPGFIVVETNYRLYAYTESELQIALIALFSEMLYRFPNMVVAQVTRESVQQAIASGITAQQIIHFLRTRAHPVMLKQTPVLPPTITDQIRLWELERDRLRFTEGVLYNQFLSQVDFELLLAHARELGVLVFENSAKRLMVVTPAGHSDVKRFWKRQKHSS
chain 2: MDEEPERTKRWEGGYERTWEILKEDESGSLKATIEDILFKAKRKRVFEHHGQVRLGMMRHLYVVVDGSRTMEDQDLKPNRLTCTLKLLEYFVEEYFDQNPISQIGIIVTKSKRAEKLTELSGNPRKHITSLKKAVDMTCHGEPSLYNSLSIAMQTLKHMPGHTSREVLIIFSSLTTCDPSNIYDLIKTLKAAKIRVSVIGLSAEVRVCTVLARETGGTYHVILDESHYKELLTHHVSPPPASSSSECSLIRMGFPQHTIASLSDQDAKPSFSMAHLDGNTEPGLTLGGYFCPQCRAKYCELPVECKICGLTLVSAPHLARSYHHLFPLDAFQEIPLEEYNGERFCYGCQGELKDQHVYVCAVCQNVFCVDCDVFVHDSLHCCPGCIHKIPAPSGV

Variants of: B1
Experiment: FLAG-IP LC–MS (iBAQ)
Conditions: with p44 [human (endogenous in HEK293T)]; HEK293T nuclear extracts; n = 3, biological replicates; read off a plot

Variant	response (Normalized Log2 iBAQ)
chain 1 MESTPSRGLNRVHLQCRNLQEFLGGLSPGVLDRLYGHPATCLAVFRELPSLAKNWVMRMLFLEQPLPQAAVALWVKKEFSKAQEESTGLLSGLRIWHTQLLPGGLQGLILNPIFRQNLRIALLGGGKAWSDDTSQLGPDKHARDVPSLDKYAEERWEVVLHFMVGSPSAAVSQDLAQLLSQAGLMKSTEPGEPPCITSAGFQFLLLDTPAQLWYFMLQYLQTAQSRGMDLVEILSFLFQLSFSTLGKDYSVEGMSDSLLNFLQHLREFGLVFQRKRKSRRYYPTRLAINLSSGVSGAGGTVHQPGFIVVFTNYRLYAYTESELQIALIALFSEMLYRFPNMVVAQVTRESVQQAIASGITAQQIIHFLRTRAHPVMLKQTPVLPPTITDQIRLWELERDRLRFTEGVLYNQFLSQVDFELLLAHARELGVLVFENSAKRLMVVTPAGHSDVKRFWKRQKHSS [chain 1 E310F]	0.64
chain 1 MESTPSRGLNRVHLQCRNLQEFLGGLSPGVLDRLYGHPATCLAVFRELPSLAKNWVMRMLFLEQPLPQAAVALWVKKEFSKAQEESTGLLSGLRIWHTQLLPGGLQGLILNPIFRQNLRIALLGGGKAWSDDTSQLGPDKHARDVPSLDKYAEERWEVVLHFMVGSPSAAVSQDLAQLLSQAGLMKSTEPGEPPCITSAGFQFLLLDTPAQLWYFMLQYLQTAQSRGMDLVEILSFLFQLSFSTLGKDYSVEGMSDSLLNFLQHLREFGLVFQRKRKSRRYYPTRLAINLSSGVSGAGGTVHQPGFIVVETNYRLAAATESELQIALIALFSEMLYRFPNMVVAQVTRESVQQAIASGITAQQIIHFLRTRAHPVMLKQTPVLPPTITDQIRLWELERDRLRFTEGVLYNQFLSQVDFELLLAHARELGVLVFENSAKRLMVVTPAGHSDVKRFWKRQKHSS [chain 1 Y316A Y318A]	0.66
chain 1 MESTPSRGLNRVHLQCRNLQEFLGGLSPGVLDRLYGHPATCLAVFRELPSLAKNWVMRMLFLEQPLPQAAVALWVKKEFSKAQEESTGLLSGLRIWHTQLLPGGLQGLILNPIFRQNLRIALLGGGKAWSDDTSQLGPDKHARDVPSLDKYAEERWEVVLHFMVGSPSAAVSQDLAQLLSQAGLMKSTEPGEPPCITSAGFQFLLLDTPAQLWYFMLQYLQTAQSRGMDLVEILSFLFQLSFSTLGKDYSVEGMSDSLLNFLQHLREFGLVFQRKRKSRRYYPTRLAINLSSGVSGAGGTVHQPGFIVVATNYALYAYTESELQIALIALFSEMLYRFPNMVVAQVTRESVQQAIASGITAQQIIHFLRTRAHPVMLKQTPVLPPTITDQIRLWELERDRLRFTEGVLYNQFLSQVDFELLLAHARELGVLVFENSAKRLMVVTPAGHSDVKRFWKRQKHSS [chain 1 E310A R314A]	0.66
chain 1 MESTPSRGLNRVHLQCRNLQEFLGGLSPGVLDRLYGHPATCLAVFRELPSLAKNWVMRMLFLEQPLPQAAVALWVKKEFSKAQEESTGLLSGLRIWHTQLLPGGLQGLILNPIFRQNLRIALLGGGKAWSDDTSQLGPDKHARDVPSLDKYAEERWEVVLHFMVGSPSAAVSQDLAQLLSQAGLMKSTEPGEPPCITSAGFQFLLLDTPAQLWYFMLQYLQTAQSRGMDLVEILSFLFQLSFSTLGKDYSVEGMSDSLLNFLQHLREFGLVFQRKRKSRRYYPTRLAINLSSGVSGAGGTVHQPGFIVVETNYRLYAYTESELQIALIALFSEMLYAAPNMVVAQVTRESVQQAIASGITAQQIIHFLRTRAHPVMLKQTPVLPPTITDQIRLWELERDRLRFTEGVLYNQFLSQVDFELLLAHARELGVLVFENSAKRLMVVTPAGHSDVKRFWKRQKHSS [chain 1 R337A F338A]	0.71
